This is an account of results in paper PMC2955809 (Structure (London, England : 1993), 2010).

The series concerns the molecule itself. Nature of the series: SEC.

B1: R.Eco29kI restriction endonuclease, E142Q (enzyme, E. coli strain 29K (plasmid pECO29), UniProt Q46944 1-214, looked up)
chain: MHNKKFDRSEHVYRNDSFLELIKDAVRFFSGTPVHSLPPPERFQGAGVYALYYTGHYSLYDEYSRINRLAYNLPIYVGKAVPAGWRQSRISDHETRAGSELSNRIREHGRNIAKTSNLDLCDFSCRFVIFEATGSDMISTVQAALIKIYKPLWNTVVDGFGNHTPGAGRFAQAKSDWDVIHPGREWAEKCTGVHSEPYFIEERIKQYFSKSNFT
In general, stoichiometry N refers to a count of units in the complex or per binding partner. Regarding B1, the “stoichiometry N” value came out at 2.
